Assay results: patent US8124742
Substitutions are numbered along the chain they refer to.

B1: SH49 (Fab, V domains shown)
VH: EVQLLESGGGVVQPGRSLRLACAASGFSFRSYGMHWVRQAPGRGLEWVAFTWFDGSNKYYVDSVKGRFTISRDNSKNTLYLEMNSLRVDDTAVYYCAREASMLRGISRYYYAMDVWGPGTTVTVSS
VL: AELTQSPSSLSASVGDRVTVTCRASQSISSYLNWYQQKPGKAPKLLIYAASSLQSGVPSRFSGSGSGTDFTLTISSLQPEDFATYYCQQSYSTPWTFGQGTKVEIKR
notes: Fab on M13 phage
B2: SH51 (Fab, V domains shown)
VH: B1 VH
VL: AELTQSPSFLSASVGDRVTITCRASQGIRSYLAWYQQKPGKAPKLLIYAASTLQSGVPSRFSGSGSGTEFTLTISSLQPEDFATYYCQQLNNYPPFTFGPGTKVDIKR
notes: Fab on M13 phage
B3: SH55 (Fab, V domains shown)
VH: EVQLLESGGGVVQPGRSLRLSCVVSGFTFNNYGMHWVRQAPGKGLEWVAVIWFDGSNKYYADSVKGRFTISRDNSKNTLYLQMNSLRAEDTAVYYCARENQIKLWSRYLYYFDYWGQGTLVTVSS
VL: AELTQPPSASGTPGQRVTISCSGSSSNIGSKYVYWYQQLPGTAPKLLIYSNNQRPSGVPDRFSAFKSGTSASLAITGLQAEDEANYYCQSYDSGLSGWVFGGGTKLTVL
notes: Fab on M13 phage
B4: SH44 (Fab, V domains shown)
VH: EVQLLESGGGVAQPGRSLRLSCVASGFSLRSYGMHWVRQAPGKGLEWVADIWFDGSNKDYADSVKGRFTISRDNSKNTLYLQMNSLRAEDTAVYYCARDWRVRAFSSGWLSAFDIWGQGTMVTVSS
VL: AELTQSPSSLSASVGDRVIITCRASQTIPRFLNWYQQKPGKAPVLLIHSISSLQSGVPSRFSASGSGTEFTLTISSLQPEDFATYYCQQSYSNLSFGPGTTVDIRR
notes: Fab on M13 phage
B5: SH41 (Fab, V domains shown)
VH: EVQLLESGGGVVQPGRSLRLSCAASGFTFSTYGMHWVRQAPGKGLEWVAVIWFDGSNKEYADSVKGRFTISRDNSKNTLYLQMNSLRAEDTAVYYCAREEVVRGVILWSRKFDYWGQGTLVTVSS
VL: AELTQSPSSLSASVGDRVTITCRASQNIRRSLNWYQHKPGRAPRLLIYAASTLQSGVPSRFRGSGSGTDFTLTINSLQPADFATYYCQQSSNTPWTFGHGTKVEIKR
notes: Fab on M13 phage
B6: SH46 (Fab, V domains shown)
VH: VQLLEESGGGVVQPGRSLRLSCAASGFTFSSYGMHWVRQAPGRGLEWVALIWYDGGNKEYADSVKGRFSISRDNSKNTLYLQVNSLRADDTAVYYCARDQRAAAGIFYYSRMDVWGQGTTVTVSS
VL: AELTQSPSSLSASVGDRVTITCRASQYISSYLNWYQQKPGKAPNLLIYAASSLQSGVPSRFSGSGSGTDFTLTISSLQPEDFATYYCQQTYSSPSTFGPGTKVDIKR
notes: Fab on M13 phage
B7: SH54 (Fab, V domains shown)
VH: EVQLLESGGGVVQPGRSLRLSCAASGFTFSRNGMHWVRQAPGKGLEWVAFIWFDGSNKYYADSVKGRFTISRDNSKNTLYLQMNSLRADDTAVYYCAREEALFRGLTRWSYGMDVWGQGTTVSVSS
VL: B6 VL with L10M, Y27S, S29G, S30T, N44K, T90S, S93T, S95W, P99Q, D104E
notes: Fab on M13 phage
B8: SH47 (Fab, V domains shown)
VH: EVQLLESGGGVVQPGRSLRLSCAASGFSFSNYAMHWVRQAPGKGLEWVAVTSFDGSIKDYADSVKGRFTISRDNSKNTLYLQMNSLRDEDTAVYYCARERGMIVVVRRRNAFDIWGQGTMVTVSS
VL: B6 VL with Y27S, S30N, T90S, S93Y, S95R, P99Q, D104E, K106R
notes: Fab on M13 phage
B9: SH48 (Fab, V domains shown)
VH: EVQLLESGGGVVQPGRSLRLSCAASGFSFSSYGMHWVRQAPGKGLEWVAVISYDGTNKYFADSVKGRFTISRDNSKKTLYLQMTSLRPEDTAVYFCANLRGEVTRRASVPLDIWGQGTMVTVSS
VL: B6 VL
notes: Fab on M13 phage
B10: SH53 (Fab, V domains shown)
VH: EVQLLESGGGGVQPGRSLRLSCAASGFTFNSYAMYWVRQPPGKGLEWVAAIWYDGSNKEYADFVKGRFTISRDNSKNTLSLQMNSLRDEDTAVYYCAREANLLRGWSRYYYGMDVWGQGTTVTVSS
VL: AELQDPVVSVALGQTVRITCQGDGLRSYYASWYQQKPGQAPKLVMYGRNNRPSGIPGRFSGSSSGQTAALTITGTQAEDEADYYCQSRATSGNPVVFGGGTKLTVL
notes: Fab on M13 phage
B11: E1/M2 (Fab, V domains shown)
VH: EVQLLESGGGLVKPGGSLRLSCAASGFTFSSYSMHWVRQAPGKGLEWVSSISNSNTYIYYADAVKGRFTISRDNAKNSLYLQMNSLRAEDTAVYYCARDSRYSNFLRWVRSDGMDVWGQGTTVIVSS
VL: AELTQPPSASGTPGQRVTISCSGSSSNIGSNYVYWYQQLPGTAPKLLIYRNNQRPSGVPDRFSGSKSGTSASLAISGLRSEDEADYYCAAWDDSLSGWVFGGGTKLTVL
notes: Fab on M13 phage; heavy chain E1 with λ light chain M2; also called E01/M02
B12: E1/M3 (Fab, V domains shown)
VH: B11 VH
VL: AELTQPPSASGTPGQRVTISCSGSSSNIGSNYVYWYQQLPGTAPKLLIYRNNQRPSGVPDRFSGSKSGTSASLAISGLRSEAEADYYCAAWDDSLSAVVFGGGTKLTVLL
notes: used both as Fab on M13 phage and as soluble γ1λ Fab; also called E01/M03; anti-epD3
B13: E1/L4 (Fab, V domains shown)
VH: B11 VH
VL: AELTQPPSASGTPGQRVSISCSGSSSNIGSNTVNWYQQLPGTAPKLLISTNNQGPSGVPDRFSGSKSGTSSSLAISGLRSEAEDDYYCAAWDDTLNGVVFGGGTKLTVL
notes: Fab on M13 phage; also called E1 with L4
B14: E1/L3 (Fab, V domains shown)
VH: B11 VH
VL: AELTQPPSASGTPGQRVTISCSGSSSNIGNNHVSWYQQLPGMAPKLLIYSNGQRPSGVPDRFSGSKSGTSASLAISGLQSEDEADYYCAAWHDSLYGPVFGGGTKLTVL
notes: Fab on M13 phage; also called E1 with L3

Target: T1, human Rh(D) antigen on Rh(D)-positive red blood cells (human, UniProt Q02161 2-417)
T1 construct: whole, on cells; also called wt; wild type Rh(D)
T1 sequence (looked up): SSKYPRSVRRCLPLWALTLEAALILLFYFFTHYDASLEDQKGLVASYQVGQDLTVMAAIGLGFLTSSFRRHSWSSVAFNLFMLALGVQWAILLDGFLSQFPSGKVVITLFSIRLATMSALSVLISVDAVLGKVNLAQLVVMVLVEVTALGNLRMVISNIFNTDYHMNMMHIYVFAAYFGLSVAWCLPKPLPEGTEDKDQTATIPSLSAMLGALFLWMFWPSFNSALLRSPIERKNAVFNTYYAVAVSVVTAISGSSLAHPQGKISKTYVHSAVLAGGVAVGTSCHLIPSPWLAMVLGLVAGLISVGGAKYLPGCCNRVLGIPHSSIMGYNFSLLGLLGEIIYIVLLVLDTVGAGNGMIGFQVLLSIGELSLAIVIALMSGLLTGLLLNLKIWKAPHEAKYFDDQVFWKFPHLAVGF
Test: agglutination, anti-M13
Description: The binding of anti-Rh(D) Fab/phage or soluble Fab molecules to normal or partial Rh(D) antigens was assessed by indirect agglutination assays as described (Siegel et al., 1994, Blood 83:2334; Siegel et al., 1997, J. Immunol. Meth. 206: 73). […] Following a one-hour incubation at 37° C., the RBCs were washed 3 times with 2 ml of cold PBS to remove unbound antibody. The resulting RBC pellets were resuspended in 100 μl of a 10 μg/ml solution of sheep anti-M13 antibody (5 Prime-3 Prime, Boulder, Colo.) for Fab/phage experiments or goat anti-human κ or λ light chain antibody (Tago, Burlingame, Calif.) for $\gamma_1\kappa$ or $\gamma_1\lambda$ soluble Fab experiments, respectively. The RBC suspensions were transferred to the round-bottomed wells of a 96-well microplate and left undisturbed for 2 hours. Negative reactions show sharp ~2 millimeter diameter RBC spots whereas the RBCs in agglutinated wells form a thin carpet coating the entire floor of the well (Siegel et al., 1997, J. Immunol. Meth. 206:73). Agglutination titers for recombinant antibodies were determined by performing serial 2-fold dilutions in 1% BSA/PBS.
Fifty-six randomly chosen colonies were selected, and monoclonal Fab/phage preparations were separately produced from each of these individual colonies, using the methods described herein in Example 1. Rh(D) specificity was determined by indirect agglutination using anti-M13 antibody, as described herein in Examples 1 and 2.

**Q.** Does B1 bind?
**A.** binds

**Q.** Does B2 bind?
**A.** binds

**Q.** Does B3 bind?
**A.** binds

**Q.** Does B4 bind?
**A.** binds

**Q.** Does B5 bind?
**A.** binds

**Q.** Does B6 bind?
**A.** binds

**Q.** Does B7 bind?
**A.** binds

**Q.** Does B8 bind?
**A.** binds

**Q.** Does B9 bind?
**A.** binds

**Q.** Does B10 bind?
**A.** binds

Target: T1, human Rh(D) antigen on Rh(D)-positive …
Test: agglutination, anti-M13
Remark: another data set of the same source

**Q.** Does B11 bind?
**A.** binds

**Q.** Does B12 bind?
**A.** binds

**Q.** Does B13 bind?
**A.** binds

**Q.** Does B14 bind?
**A.** binds
